B1: VPS39 (parent)
chain: ITEEKVCMVCKKKIGNSAFARYPN
B2: ZNF277 (parent)
chain: ILREELQKQRLREILEQQQQERND
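Note: lentivirally expressed fusions sorted by FACS into six bins by GFP to DsRed ratio, PSI derived from sequencing read proportions per bin multiplied by bin number.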

Variants of B1 are the subject of one data set. The data set can be described thus: protein stability index of a GFP-peptide fusion (GPS, HEK-293T) (PSI 1-6); higher = more stable. The settings on record: c terminus: a fixed tail appended.
Turning to ITEEKVCMVCKKKIGNSAFARYAN [P23A], the protein stability index is 2.38.

In the case of ITEEKVCMVCKKKIGNSAFARYYN [P23Y], the protein stability index amounted to 1.74.

With ITEEKVCMVCKKKIGNSAFARYVN [P23V], the protein stability index was 4.25.

ITEEKVCMVCKKKIGNSAFARYHN [P23H]: the protein stability index is 2.04.

Consider ITEEKVCMVCKKKIGNSAFARYEN [P23E], for which the protein stability index amounted to 3.38.

Regarding ITEEKVCMVCKKKIGNSAFARYQN [P23Q], the protein stability index came out at 2.26.

Turning to ITEEKVCMVCKKKIGNSAFARYGN [P23G], the protein stability index is 2.7.

Consider ITEEKVCMVCKKKIGNSAFARYRN [P23R], for which the protein stability index is 2.49.

As for ITEEKVCMVCKKKIGNSAFARYIN [P23I], the protein stability index amounted to 2.63.

For the variant ITEEKVCMVCKKKIGNSAFARYCN [P23C], the protein stability index was 2.8.

As to ITEEKVCMVCKKKIGNSAFARYKN [P23K], the protein stability index is 2.13.

ITEEKVCMVCKKKIGNSAFARYDN [P23D]: the protein stability index worked out at 3.19.

Turning to ITEEKVCMVCKKKIGNSAFARYLN [P23L], the protein stability index came to 2.57.

As to ITEEKVCMVCKKKIGNSAFARYMN [P23M], the protein stability index was 1.78.

For ITEEKVCMVCKKKIGNSAFARYNN [P23N], the protein stability index came to 2.32.

Consider ITEEKVCMVCKKKIGNSAFARYTN [P23T], for which the protein stability index was found to be 2.13.

On to ITEEKVCMVCKKKIGNSAFARYSN [P23S], for which the protein stability index was 2.56.

As for ITEEKVCMVCKKKIGNSAFARYFN [P23F], the protein stability index was 1.76.

Regarding ITEEKVCMVCKKKIGNSAFARYWN [P23W], the protein stability index is 1.75.

As for ITEEKVCMVCKKKIGNSAFARAPN [Y22A], the protein stability index came to 2.57.

For ITEEKVCMVCKKKIGNSAFARLPN [Y22L], the protein stability index was found to be 2.22.

For the variant ITEEKVCMVCKKKIGNSAFARSPN [Y22S], the protein stability index worked out at 2.81.

Regarding ITEEKVCMVCKKKIGNSAFARNPN [Y22N], the protein stability index is 2.72.

For the variant ITEEKVCMVCKKKIGNSAFARIPN [Y22I], the protein stability index was found to be 2.39.

For ITEEKVCMVCKKKIGNSAFAREPN [Y22E], the protein stability index came out at 3.55.

Consider ITEEKVCMVCKKKIGNSAFARVPN [Y22V], for which the protein stability index is 2.38.

Consider ITEEKVCMVCKKKIGNSAFARQPN [Y22Q], for which the protein stability index turned out to be 2.77.

As for ITEEKVCMVCKKKIGNSAFARMPN [Y22M], the protein stability index was 2.9.

ITEEKVCMVCKKKIGNSAFARFPN [Y22F]: the protein stability index stood at 2.31.

As to ITEEKVCMVCKKKIGNSAFARPPN [Y22P], the protein stability index turned out to be 2.65.

As for ITEEKVCMVCKKKIGNSAFARRPN [Y22R], the protein stability index came out at 2.35.

Turning to ITEEKVCMVCKKKIGNSAFARGPN [Y22G], the protein stability index turned out to be 2.64.

Regarding ITEEKVCMVCKKKIGNSAFARHPN [Y22H], the protein stability index was determined as 2.77.

Regarding ITEEKVCMVCKKKIGNSAFARKPN [Y22K], the protein stability index was 2.82.

For the variant ITEEKVCMVCKKKIGNSAFARDPN [Y22D], the protein stability index came to 3.12.

ITEEKVCMVCKKKIGNSAFARWPN [Y22W]: the protein stability index was determined as 1.63.

As to ITEEKVCMVCKKKIGNSAFARTPN [Y22T], the protein stability index is 2.95.

Turning to ITEEKVCMVCKKKIGNSAFARCPN [Y22C], the protein stability index was determined as 2.98.

As to ITEEKVCMVCKKKIGNSAFAPYPN [R21P], the protein stability index worked out at 3.02.

ITEEKVCMVCKKKIGNSAFAYYPN [R21Y]: the protein stability index was 3.13.

For the variant ITEEKVCMVCKKKIGNSAFAQYPN [R21Q], the protein stability index came to 2.75.

Take ITEEKVCMVCKKKIGNSAFAWYPN [R21W]: the protein stability index turned out to be 1.94.

For the variant ITEEKVCMVCKKKIGNSAFASYPN [R21S], the protein stability index worked out at 2.58.

As for ITEEKVCMVCKKKIGNSAFATYPN [R21T], the protein stability index worked out at 2.55.

With ITEEKVCMVCKKKIGNSAFAVYPN [R21V], the protein stability index stood at 2.59.

ITEEKVCMVCKKKIGNSAFARYPY [N24Y]: the protein stability index was 2.39.

Consider ITEEKVCMVCKKKIGNSAFARYPS [N24S], for which the protein stability index came to 2.18.

As to ITEEKVCMVCKKKIGNSAFARYPE [N24E], the protein stability index worked out at 2.05.

In the case of ITEEKVCMVCKKKIGNSAFARYPP [N24P], the protein stability index stood at 2.37.

For ITEEKVCMVCKKKIGNSAFARYPH [N24H], the protein stability index is 2.36.

For ITEEKVCMVCKKKIGNSAFARYPI [N24I], the protein stability index is 1.86.

ITEEKVCMVCKKKIGNSAFARYPG [N24G]: the protein stability index was found to be 1.77.

Regarding ITEEKVCMVCKKKIGNSAFARYPC [N24C], the protein stability index came out at 2.34.

In the case of ITEEKVCMVCKKKIGNSAFARYPW [N24W], the protein stability index came to 1.93.

On to ITEEKVCMVCKKKIGNSAFARYPM [N24M], for which the protein stability index worked out at 2.06.

In the case of ITEEKVCMVCKKKIGNSAFARYPQ [N24Q], the protein stability index was 2.52.

As for ITEEKVCMVCKKKIGNSAFARYPD [N24D], the protein stability index came to 2.6.

As to ITEEKVCMVCKKKIGNSAFARYPF [N24F], the protein stability index came out at 1.85.

Turning to ITEEKVCMVCKKKIGNSAFARYPL [N24L], the protein stability index is 2.27.

As for ITEEKVCMVCKKKIGNSAFARYPV [N24V], the protein stability index is 1.65.

With ITEEKVCMVCKKKIGNSAFARYPA [N24A], the protein stability index turned out to be 2.11.

Take ITEEKVCMVCKKKIGNSAFARYPT [N24T]: the protein stability index is 2.88.

Turning to ITEEKVCMVCKKKIGNSAFARYPK [N24K], the protein stability index was 2.24.

The next data set covers variants of B2. The description is as above. The settings on record: c terminus: a fixed tail appended.
As to ILREELLKQRLREILEQQQQERND [Q7L], the protein stability index was 3.64.

In the case of ILREELAKQRLREILEQQQQERND [Q7A], the protein stability index came out at 4.12.

As for ILREELCKQRLREILEQQQQERND [Q7C], the protein stability index stood at 4.24.

With ILREELPKQRLREILEQQQQERND [Q7P], the protein stability index stood at 5.

For ILREELRKQRLREILEQQQQERND [Q7R], the protein stability index amounted to 4.1.

For the variant ILREELSKQRLREILEQQQQERND [Q7S], the protein stability index is 4.11.

For ILREELEKQRLREILEQQQQERND [Q7E], the protein stability index was found to be 5.22.

On to ILREELDKQRLREILEQQQQERND [Q7D], for which the protein stability index was 4.26.

As to ILREELNKQRLREILEQQQQERND [Q7N], the protein stability index worked out at 4.44.

Regarding ILREELGKQRLREILEQQQQERND [Q7G], the protein stability index is 5.06.

ILREELKKQRLREILEQQQQERND [Q7K]: the protein stability index is 3.46.

For ILREELTKQRLREILEQQQQERND [Q7T], the protein stability index turned out to be 3.62.

As for ILREELIKQRLREILEQQQQERND [Q7I], the protein stability index worked out at 2.9.

As for ILREELFKQRLREILEQQQQERND [Q7F], the protein stability index amounted to 2.93.

As to ILREELHKQRLREILEQQQQERND [Q7H], the protein stability index was 4.47.

ILREELWKQRLREILEQQQQERND [Q7W]: the protein stability index worked out at 2.37.

With ILREELVKQRLREILEQQQQERND [Q7V], the protein stability index came to 3.58.

In the case of ILREELMKQRLREILEQQQQERND [Q7M], the protein stability index came to 3.74.

Take ILREPLQKQRLREILEQQQQERND [E5P]: the protein stability index amounted to 4.47.

Regarding ILRENLQKQRLREILEQQQQERND [E5N], the protein stability index worked out at 4.7.

With ILREYLQKQRLREILEQQQQERND [E5Y], the protein stability index is 3.55.

With ILRECLQKQRLREILEQQQQERND [E5C], the protein stability index came out at 3.76.

With ILREFLQKQRLREILEQQQQERND [E5F], the protein stability index is 2.35.

Turning to ILREVLQKQRLREILEQQQQERND [E5V], the protein stability index was found to be 2.42.

Turning to ILREILQKQRLREILEQQQQERND [E5I], the protein stability index was 2.94.

In the case of ILREGLQKQRLREILEQQQQERND [E5G], the protein stability index came out at 5.27.

Turning to ILREHLQKQRLREILEQQQQERND [E5H], the protein stability index was determined as 3.81.

Consider ILREALQKQRLREILEQQQQERND [E5A], for which the protein stability index stood at 2.71.

Take ILRESLQKQRLREILEQQQQERND [E5S]: the protein stability index turned out to be 3.99.

Turning to ILREKLQKQRLREILEQQQQERND [E5K], the protein stability index was 4.51.

With ILREMLQKQRLREILEQQQQERND [E5M], the protein stability index stood at 3.05.

These data come from the supplement of paper PMC10567573.
